Tests used:
[1] = molecular target: PFHR9 NC1 domains; test: SEC
[2] = molecular target: recombinant collagen IV α112 protomer (r-Prot); test: SEC

Substance | stoichiometry N [1] | stoichiometry N [2]
PFHR9 NC1 domains | 6 | 
recombinant collagen IV α112 protomer (r-Prot) (complex) |  | 2

From article PMC4878091
